{"source": "patent US6590086", "key": {"[1]": {"target": "SV40 large T antigen (SV40) (UniProt P03070)", "experiment": "in vitro phosphorylation of the large T:Rb complex, immunoprecipitation with anti-large T antibody"}, "[2]": {"target": "SV40 large T antigen (SV40), P03070", "experiment": "in vitro phosphorylation of the large T:Rb complex, immunoprecipitation with anti-large T antibody", "details": "remark: other sources report otherwise"}}, "note": "“And” between values parts separate entries of the source, which are not always exact repeats. Identical values can stand only once.", "data": [{"molecule": "RB-E (from UniProt P06400 2-928)", "values": [{"measurement": "percent of the Rb protein released from large T by phosphorylation", "setting": "[1]", "result": 70, "unit": "%"}]}, {"molecule": "RB-H, P06400 2-928 (protein) PPKTPRKTAATAAAAAAEPPAPPPPPPPEEDPEQDSGPEDLPLVRLEFEETEEPDFTALCQKLKIPDHVRERAWLTWEKVSSVDGVLGGYIQKKKELWGICIFIAAVDLDEMSFTFTELQKNIEISVHKFFNLLKEIDTSTKVDNAMSRLLKKYDVLFALFSKLERTCELIYLTQPSSSISTEINSALVLKVSWITFLLAKGEVLQMEDDLVISFQLMLCVLDYFIKLSPPMLLKEPYKTAVIPINGSPRTPRRGQNRSARIAKQLENDTRIIEVLCKEHECNIDEVKNVYFKNFIPFMNSLGLVTSNGLPEVENLSKRYEEIYLKNKDLDARLFLDHDKTLQTDSIDSFETQRTPRKSNLDEEVNVIPPHTPVRTVMNTIQQLMMILNSASDQPSENLISYFNNCTVNPKESILKRVKDIGYIFKEKFAKAVGQGCVEIGSQRYKLGVRLYYRVMESMLKSEEERLSIQNFSKLLNDNIFHMSLLACALEVVMATYSRSTSQNLDSGTDLSFPWILNVLNLKAFDFYKVIESFIKAEGNLTREMIKHLERCEHRIMESLAWLSDSPLFDLIKQSKDREGPTDHLESACPLNLPLQNNHTAADMYLSPVRSPKKKGSTTRVNSTANAETQATSAFQTQKPLKSTSLSLFYKKVYRLAYLRLNTLCERLLSEHPELEHIIWTLFQHTLQNEYELMRDRHLDQIMMCSMYGICKVKNIDLKFKIIVTAYKDLPHAVQETFKRVLIKEEEYDSIIVFYNSVFMQRLKTNILQYASTRPPTLSPIPHIPRSPYKFPSSPLRIPGGNIYISPLKSPYKISEGLPTPTKMTPRSRILVSIGESFGTSEKFQKINQMVCNSDRVLKRSAEGSNPPKPLKKLRFDIEGSDEADGSKHLPGESKFQQKLAEMTSTRTRMQKQKMNDSMDTSNKEEK", "values": [{"measurement": "percent of the Rb protein that remained bound after phosphorylation", "setting": "[2]", "result": "20% and 30%"}]}]}
